Here are results for two molecules from patent publication EP4813403A1, “USE OF GLP-1R/GIPR DOUBLE-TARGET AGONIST IN PREPARING ANIMAL DRUG” (Hangzhou Zhongmeihuadong Pharmaceutical Co., Ltd., priority 2023, dated 2025).

The target in assay [1] is T1, human GIP receptor (human) (UniProt P48546).
T1 sequence (looked up): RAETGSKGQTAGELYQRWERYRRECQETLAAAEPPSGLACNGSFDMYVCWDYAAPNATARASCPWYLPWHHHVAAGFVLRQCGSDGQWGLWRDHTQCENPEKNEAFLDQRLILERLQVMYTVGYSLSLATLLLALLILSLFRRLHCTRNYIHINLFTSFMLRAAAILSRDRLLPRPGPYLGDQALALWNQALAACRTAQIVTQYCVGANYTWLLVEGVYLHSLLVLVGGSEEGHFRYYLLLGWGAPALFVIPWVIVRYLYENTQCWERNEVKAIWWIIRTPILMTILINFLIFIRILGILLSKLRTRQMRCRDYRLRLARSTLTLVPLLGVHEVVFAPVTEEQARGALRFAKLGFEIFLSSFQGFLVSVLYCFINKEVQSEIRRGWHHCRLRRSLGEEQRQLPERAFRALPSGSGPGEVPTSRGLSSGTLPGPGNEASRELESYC
The experiment in a line: cell-based or functional assay.

The target of assay [2] is human GLP-1 receptor (human) (UniProt P43220). The assay can be described thus: cell-based or functional assay.
Chain of human GLP-1 receptor (human) (P43220 24-463): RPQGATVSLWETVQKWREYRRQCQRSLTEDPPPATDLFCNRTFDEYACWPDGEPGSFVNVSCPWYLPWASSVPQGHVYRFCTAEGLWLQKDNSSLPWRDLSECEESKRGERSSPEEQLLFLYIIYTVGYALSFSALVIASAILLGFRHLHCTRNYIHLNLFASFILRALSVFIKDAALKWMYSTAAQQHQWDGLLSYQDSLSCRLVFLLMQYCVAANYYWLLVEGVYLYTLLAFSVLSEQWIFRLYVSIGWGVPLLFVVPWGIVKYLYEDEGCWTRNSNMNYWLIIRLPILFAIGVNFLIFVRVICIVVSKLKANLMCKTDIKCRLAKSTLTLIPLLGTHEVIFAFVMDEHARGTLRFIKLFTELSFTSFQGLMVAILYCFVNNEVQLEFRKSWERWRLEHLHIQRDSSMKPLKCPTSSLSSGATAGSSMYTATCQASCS
In assay [3] the target is T1, human GIP receptor (human). The experiment in a line: radioligand competition ([125I]GIP displaced), membranes of cells over-expressing human GIPR; Ki by Cheng-Prusoff. In general terms: Displacement assays read how much labelled ligand stays bound in the presence of the test substance.
Assay [4] concerns the target human GLP-1 receptor (human) (UniProt P43220). The experiment in a line: radioligand competition ([125I]GLP-1 displaced), membranes of cells over-expressing human GLP-1R; Ki by Cheng-Prusoff.

For the molecule YXEGTXTSDYXIXLDKQAQAEFVKWLLKGGPSSGAPPPSK (X1 is Aib; X2 is αMePhe; X3 is Aib; X4 is Aib; C-terminal primary amide) [P001], the EC50 value (ratio: EC50 of endogenous ligand / EC50 of test compound), LANCE Ultra cAMP assay, HEK293/GIPR cells in assay [1] worked out at 7.13. Also, in assay [2], the EC50 value (ratio: EC50 of endogenous ligand / EC50 of test compound), cAMP reporter gene (luciferase) assay, HEK293/CRE/GLP-1R cells was 52.1. In addition, the Ki ratio (Ki of endogenous ligand / Ki of test compound) in assay [3] is 8.82; in assay [4], 19.5.

B1: P007 (peptide)
peptide: YXEGTXTSDYXIXLDKQAQAEFVKWLLKGGPSSGAPPPSK
modifications: Aib at 2; αMePhe at 6; Aib at 11; Aib at 13; K at position 24 ε-amino conjugated with ([2-(2-amino-ethoxy)-ethoxy]-acetyl)2-(γ-Glu)1-CO-(CH2)16-CO2H; C-terminal primary amide
Consider B1, for which the EC50 value (ratio: EC50 of endogenous ligand / EC50 of test compound), cAMP reporter gene (luciferase) assay, HEK293/CRE/GLP-1R cells in assay [2] was 5.84. The Ki ratio (Ki of endogenous ligand / Ki of test compound) in assay [4] came to 0.47.
